From the supplement of paper PMC7877785
± gives the uncertainty stated by the source.

Assay: self-splicing fitness, log relative to wild type (ln ratio); higher = more splicing; Tetrahymena group I intron in knt gene, E. coli kanamycin selection, DiMSum; sequences stand for … in CUCUCU…GGAGGGAAAAGUUAUCAGGCAUGCACCUGGUAGCUAGUCUUUAAACCAAUAGAUUGCAUCGGUUUAAAAGGCAAGACCGUCAAAUUGCGGGAAAGGGGUCAACAGCCGUUCAGUACCAAGUCUCAGGGGAAACUUUGAGAUGGCCUUGCAAAGGGUAUGGUAAUAAGCUGACGGACAUGGUCCUAACCACGCAGCCAAGUCCUAAGUCAACAGAUCUUCUGUUGAUAUGGAUGCAGUUCACAGACUAAAUGUCGGUCGGGGAAGAUGUAUUCUUCUCAUAAGAUAUAGUCGGACCUCUCCUUAAUGGGAGCUAGCGGAUGAAGUGAUGCAACACUGGAGCCGCUGGGAACUAAUUUGUAUGCGAAAGUAUAUUGAUUAGUUUUGGAGUACUCGUGGUCG
Outline: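 Library with all eight P1ex-region intron nucleotides randomised, intron inside the knt kanamycin-resistance gene on pET-22b(+), in E. coli BL21(DE3). Cells grew overnight at 37°C or 30°C on LB agar with or without 25 μg/mL kanamycin (plus 100 μg/mL carbenicillin, 50 μM IPTG, 0.2% rhamnose), in six replicate transformations. Pooled colonies were amplicon-sequenced on Illumina HiSeq 2500. DiMSum fitness is the error-weighted combination of wild-type-normalised replicate fold changes, kanamycin versus none.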

Sequence	self-splicing fitness (ln) (30 °C)	self-splicing fitness (ln) (37 °C)
GGUGAGCAAUAUUACGGCAG	-2.25 ± 0.32	
GGUGAGCAAUAUUACGGCUA	-0.0423 ± 0.12	0.0315 ± 0.14
GGUGAGCAAUAUUACGGCUG	-1.06 ± 0.15	-0.543 ± 0.21
GGUGAGCAAUAUUACGGGCA	-1.68 ± 0.17	-0.406 ± 0.17
GGUGAGCAAUAUUACGGUGA	-2.81 ± 0.23	-1.28 ± 0.21
GGUGAGCAAUAUUACGGUGC	-2.09 ± 0.14	-0.734 ± 0.2
GGUGAGCAAUAUUACGGUUG	-3.99 ± 0.37	-2.36 ± 0.25
GGUGAGCAAUAUUACGUAUU	-1.96 ± 0.31	-1.94 ± 0.47
GGUGAGCAAUAUUACGUCAA	-3.58 ± 0.46	-2.78 ± 0.31
GGUGAGCAAUAUUACGUCCG	-1.13 ± 0.21	-0.66 ± 0.29
GGUGAGCAAUAUUACGUCCU	-0.834 ± 0.23	-1.45 ± 0.22
GGUGAGCAAUAUUACGUCGC	-3.57 ± 0.49	
GGUGAGCAAUAUUACGUCGU	-2.57 ± 0.15	-1.91 ± 0.2
GGUUAGCAAUAUUACGAACA	-0.6 ± 0.18	0.626 ± 0.25
GGUUAGCAAUAUUACGAGUC	-3 ± 0.39	-1.16 ± 0.23
GGUUAGCAAUAUUACGAUUU	0.309 ± 0.089	0.0839 ± 0.12
GGUUAGCAAUAUUACGCCGG	-2.48 ± 0.5	-3.55 ± 0.42
GGUUAGCAAUAUUACGCCGU	-1.91 ± 0.22	-1.03 ± 0.21
GGUUAGCAAUAUUACGCCUA	0.0795 ± 0.32	-1.32 ± 0.25
GGUUAGCAAUAUUACGCGCG	-0.271 ± 0.15	0.879 ± 0.15
GGUUAGCAAUAUUACGGACG	0.908 ± 0.17	-0.388 ± 0.22
GGUUAGCAAUAUUACGGCUA	-0.605 ± 0.088	0.861 ± 0.13
GGUUAGCAAUAUUACGGUUA	-1.23 ± 0.11	-0.486 ± 0.082
GGUUAGCAAUAUUACGGUUG	-2.73 ± 0.32	-1.57 ± 0.33
GGUUAGCAAUAUUACGGUUU	-0.608 ± 0.086	-0.0158 ± 0.11

Sequence	self-splicing fitness (ln) (30 °C)	self-splicing fitness (ln) (37 °C)
GGUUAGCAAUAUUACGUAAG	-0.619 ± 0.14	-0.436 ± 0.23
GGUUAGCAAUAUUACGUCCG	-0.773 ± 0.11	-0.617 ± 0.2
GGUUAGCAAUAUUACGUGCG	-0.0643 ± 0.066	0.0143 ± 0.078
GGUUAGCAAUAUUACGUUGG	-4.01 ± 0.34	-1.72 ± 0.18
GUAAAGCAAUAUUACGAACG	-0.437 ± 0.077	-0.132 ± 0.12
GUAAAGCAAUAUUACGACAA	-0.153 ± 0.12	-0.2 ± 0.13
GUAAAGCAAUAUUACGAGCA	0.322 ± 0.08	0.673 ± 0.11
GUAAAGCAAUAUUACGAUCC	-0.0218 ± 0.18	0.363 ± 0.29
GUAAAGCAAUAUUACGCAAG	-2.89 ± 0.18	-0.51 ± 0.12
GUAAAGCAAUAUUACGCAAU	-0.316 ± 0.098	-0.564 ± 0.16
GUAAAGCAAUAUUACGCACG	-0.557 ± 0.067	-0.242 ± 0.093
GUAAAGCAAUAUUACGCGUA	-1.25 ± 0.094	-0.105 ± 0.12
GUAAAGCAAUAUUACGCUCU	-2.11 ± 0.19	-0.206 ± 0.24
GUAAAGCAAUAUUACGCUGA	-1.4 ± 0.072	-0.903 ± 0.099
GUAAAGCAAUAUUACGCUUC	-3.5 ± 0.23	-1.97 ± 0.23
GUAAAGCAAUAUUACGGCCC	0.25 ± 0.16	0.443 ± 0.24
GUAAAGCAAUAUUACGGCCU	-0.0192 ± 0.12	0.105 ± 0.12
GUAAAGCAAUAUUACGGGAC	-1.62 ± 0.12	-1.18 ± 0.11
GUAAAGCAAUAUUACGGUGG	-2.81 ± 0.11	-1.48 ± 0.11
GUAAAGCAAUAUUACGGUUA	-0.077 ± 0.058	0.569 ± 0.086
GUAAAGCAAUAUUACGUAAC	-1.7 ± 0.17	-1.38 ± 0.28
GUAAAGCAAUAUUACGUAAU	-1.58 ± 0.073	-0.314 ± 0.098
GUAAAGCAAUAUUACGUAGC	-2.6 ± 0.11	-0.771 ± 0.097
GUAAAGCAAUAUUACGUAGG	-2.5 ± 0.11	-1.35 ± 0.15
GUAAAGCAAUAUUACGUAUG	-4.04 ± 0.25	-0.559 ± 0.12

Sequence	self-splicing fitness (ln) (30 °C)	self-splicing fitness (ln) (37 °C)
GUAAAGCAAUAUUACGUCAA	-1.56 ± 0.098	-0.85 ± 0.097
GUAAAGCAAUAUUACGUCAU	-0.555 ± 0.095	-0.359 ± 0.096
GUAAAGCAAUAUUACGUGCU	-2.34 ± 0.11	-0.431 ± 0.12
GUAAAGCAAUAUUACGUGGC	-3.42 ± 0.18	-2.48 ± 0.2
GUACAGCAAUAUUACGAACA	-1.51 ± 0.11	-0.736 ± 0.11
GUACAGCAAUAUUACGACUA	-1.16 ± 0.13	-0.637 ± 0.12
GUACAGCAAUAUUACGAGAA	-2.36 ± 0.45	-1.51 ± 0.27
GUACAGCAAUAUUACGAGGC	-3.95 ± 0.46	-1.41 ± 0.18
GUACAGCAAUAUUACGCACG	-2.42 ± 0.28	-0.89 ± 0.19
GUACAGCAAUAUUACGCGCG	-1.45 ± 0.19	-0.578 ± 0.17
GUACAGCAAUAUUACGCGUG	-2 ± 0.061	-1.42 ± 0.072
GUACAGCAAUAUUACGGCCU	-1.84 ± 0.17	0.0868 ± 0.17
GUACAGCAAUAUUACGGGCC	-3.94 ± 0.3	-1.14 ± 0.15
GUACAGCAAUAUUACGGUUG	-3.9 ± 0.23	-1.86 ± 0.2
GUACAGCAAUAUUACGUAUU	-3.45 ± 0.14	-2.45 ± 0.17
GUACAGCAAUAUUACGUUUC	-3.44 ± 0.14	-1.87 ± 0.14
GUAGAGCAAUAUUACGACAU	0.278 ± 0.014	0.459 ± 0.033
GUAGAGCAAUAUUACGACUA	-0.724 ± 0.071	0.693 ± 0.11
GUAGAGCAAUAUUACGAGAG		-2.05 ± 0.36
GUAGAGCAAUAUUACGAUAC	-1.42 ± 0.13	-0.561 ± 0.18
GUAGAGCAAUAUUACGAUUU	-1.13 ± 0.12	-0.037 ± 0.21
GUAGAGCAAUAUUACGCAUA	-1.58 ± 0.14	-1.59 ± 0.17
GUAGAGCAAUAUUACGCCAC	-1.7 ± 0.29	
GUAGAGCAAUAUUACGCGAA	-1.12 ± 0.058	-0.709 ± 0.077
GUAGAGCAAUAUUACGCGAG	-1.69 ± 0.14	-0.548 ± 0.14

Sequence	self-splicing fitness (ln) (30 °C)	self-splicing fitness (ln) (37 °C)
GUAGAGCAAUAUUACGCGUA	-1.64 ± 0.2	-0.093 ± 0.25
GUAGAGCAAUAUUACGGAAA	-2.18 ± 0.28	-2.18 ± 0.22
GUAGAGCAAUAUUACGGUAU	-1.38 ± 0.083	-0.286 ± 0.1
GUAGAGCAAUAUUACGGUCA	-1.47 ± 0.098	-0.0887 ± 0.12
GUAGAGCAAUAUUACGGUCU	-1.46 ± 0.1	-0.783 ± 0.14
GUAGAGCAAUAUUACGUCAA	-2.01 ± 0.14	-2.38 ± 0.29
GUAGAGCAAUAUUACGUCUA	-1.34 ± 0.11	-0.919 ± 0.13
GUAGAGCAAUAUUACGUCUC	-0.285 ± 0.092	-0.305 ± 0.099
GUAGAGCAAUAUUACGUGAU	-2.29 ± 0.2	-1.36 ± 0.19
GUAGAGCAAUAUUACGUGGG	-2.75 ± 0.17	-2.08 ± 0.2
GUAGAGCAAUAUUACGUGUU	-3.68 ± 0.21	-2.04 ± 0.19
GUAGAGCAAUAUUACGUUCA	-0.476 ± 0.1	-0.627 ± 0.11
GUAGAGCAAUAUUACGUUUA	-2.09 ± 0.17	-1.39 ± 0.17
GUAUAGCAAUAUUACGAAAA		-1.18 ± 0.22
GUAUAGCAAUAUUACGAAAG	-3.15 ± 0.43	-2.06 ± 0.35
GUAUAGCAAUAUUACGAACA	-2.44 ± 0.27	-1.21 ± 0.27
GUAUAGCAAUAUUACGAACG	-1.91 ± 0.32	
GUAUAGCAAUAUUACGAAGG	-3.44 ± 0.36	-1.61 ± 0.29
GUAUAGCAAUAUUACGAGAA		-2.32 ± 0.49
GUAUAGCAAUAUUACGAGGG	-3.15 ± 0.26	-0.987 ± 0.23
GUAUAGCAAUAUUACGAUAA	-0.869 ± 0.12	-0.771 ± 0.16
GUAUAGCAAUAUUACGCACG	-1.99 ± 0.19	-0.994 ± 0.3
